Results on four substances are retold here after patent US20110229423A1 (Galderma Research & Development, priority 2008, published 2011).

Data set [1] relates to human skin. Put plainly: Skin temperature (ST) in human volunteers before and after intravenous peptide application. It counts as in vivo. How it is done: First, the skin temperature (ST) was measured in different human body regions before and after continuous intravenous application of 100 pmol/kg b.w./h PACAP1-27. Under basal conditions a ST of 33.51±0.25° C. was measured at 0 min. Differences of ST [ΔT(° C.)] were measured after 5, 15, 30, 45, 60 min (FIG. 1: Changes in skin temperature [ΔT(° C.)] as compared to basal (0=33.51±0.25° C.) before and after continuous infusion of 100 pmol/kg b.w./h PACAP1-27 Mean±SEM, *=p<0.05 (n=10)). […] This increase persisted even after 30 min although less dramatic (+1.8° C.±0.26). […] This PACAP-induced effect in human skin was dose-dependent (FIG. 2: Changes in skin temperature [ΔT(° C.)] as compared to basal after continuous infusion of 7.5, 15, or 30 pmol/kg b.w./h PACAP1-27. Mean±SEM, *=p<0.05 (n=9). Mean time until first flush symptoms occurred was 46.03±5.30 min.). […] Next, ST was measured in different body regions before and after a bolus injection of […] PACAP1-27. […] Changes in skin temperature [ΔT(° C.)] as compared to basal ([…]=33.51±0.25° C.) under different conditions of continuous infusion and concentrations (◯=1 μg/kg b.w./h PACAP1-27; o=100 pmol/kg b.w./h). Mean±SEM, *=p<0.05 (n=10)). […] Mean±SEM, *=p<0.05 (n=7)).

The test system of data set [2] is human skin. Put plainly: Flush phenomenon (erythema, edema) in volunteers after intravenous PACAP1-27. It counts as in vivo. How it is done:
B) Flush phenomenon in a probationer after intravenous application of PACAP1-27. Note cutaneous erythema and facial as well as a marked periorbital edema 30 min after application). […] The approximate duration when first signs of a “flush” occurred were 46.03±5.3 min with 100 pmol/kg b.w./h PACAP1-27. The erythema persisted approximately for 6 h.

The target in a further data set is T1, VPAC1R (Homo sapiens, UniProt P32241).
T1 construct: To confirm that HDMEC express functional VPAC1R, we kept HDMEC in FCS/nutrient deficient medium for 24 h; endogenous in cells; host or cells: HDMEC (human dermal microvascular endothelial cells)
T1 sequence (P32241 31-457): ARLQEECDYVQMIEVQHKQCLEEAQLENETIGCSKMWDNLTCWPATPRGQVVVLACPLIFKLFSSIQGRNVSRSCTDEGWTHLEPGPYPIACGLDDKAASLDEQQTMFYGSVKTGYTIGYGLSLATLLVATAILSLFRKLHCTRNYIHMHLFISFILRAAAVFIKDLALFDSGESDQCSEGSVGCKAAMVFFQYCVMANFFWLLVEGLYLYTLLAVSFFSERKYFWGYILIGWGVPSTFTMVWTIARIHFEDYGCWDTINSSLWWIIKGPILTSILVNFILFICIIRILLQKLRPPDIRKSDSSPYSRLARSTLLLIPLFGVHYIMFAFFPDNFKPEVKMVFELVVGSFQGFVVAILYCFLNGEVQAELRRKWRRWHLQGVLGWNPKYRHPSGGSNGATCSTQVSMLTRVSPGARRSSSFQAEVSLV
Put plainly: In vitro measurement of cAMP activation in HDMEC. It counts as cell-based. How it is done: For example, Human Dermal Microvascular Endothelial cells (HDMEC) can be grown in endothelial cell growth medium. Lyophilized PACAP1-38 can be diluted in the appropriate volume of HDMEC assay medium immediately prior to use. IBMX (3-Isobutyl-1-Methylxanthin) can be added to the medium as a phosphodiesterase inhibitor in order to measure all the intracellular built cAMP after receptor stimulation without the intrinsic phosphdiesterase cleaving some of it. After 24 h cells can be harvested and extracted with 65% ethanol in PBS which can be lyophilized and the cAMP concentration can be examined using a cAMP EIA-direct assay (Amersham Pharmacia Biotech).
Pretreatment with antagonist was 3 min before agonist stimulation. […] Experiments were performed at least three times). IBMX (3-Isobutyl-1-Methylxanthin; 4 mM) was added to the medium as a phosphodiesterase inhibitor in order to measure all the intracellular built cAMP after receptor stimulation without the intrinsic phosphodiesterase cleaving some of it.

For the next data set, the system named is HDMEC. The data set is described as follows: ELISA for NO release by HDMEC. It is filed as cell-based, human. From the text: In an alternative approach, the determination of the activity of PACAP signalling pathway can be carried out using an Enzyme-Linked Immunosorbent Assay (ELISA) for nitric oxide (NO) production in HDMEC. To study cytokine release by HDMEC after PACAP stimulation, cells can be stimulated as described above and supernatants can be collected and frozen until use for ELISA assays. For the detection of NO release, NO-ELISA kits, for example from BioSource Int. can be used.
PACAP-induced release of NO in HDMEC. After finding that HDMEC express functional VPAC1R and that VPAC1R is the crucial receptor in human skin epithelium on the protein level, we examined whether PACAP is capable of releasing NO from HDMEC at similar concentrations. Therefore, we performed specific ELISAs with supernatants collected at time-points between […] (FIG. 12). Indeed, PACAP (10^−9 M) induced the release of NO (582%+/−25) by HDMEC as compared to control with a maximal effect at 15 min.

Data set [3] can be described thus: Systemic parameters: pulse and blood pressure RR syst./diast. during PACAP infusion. It counts as in vivo, human. An excerpt:
To test whether these prominent effects in human skin (erythema, edema) and difference in skin temperature [ΔT(° C.)] were due to a local vascular effect and not due to a secondary systemic effect we measured systemic parameters such as pulse (B/min) and blood pressure RR syst./diast. (mm Hg). […] Thus, PACAP-induced changes are most likely due to a local effect in cutaneous vasculature.

[4] abbreviates: 30 min, change from 7.5 to 15 pmol/kg/h.
The mark [5] stands for this setting: 60 min, change from 15 to 30 pmol/kg/h.

Ends that are not written are not given here.

Take “vasoactive intestinal peptide (HSDAVFTDNYTRLRKQMAVKKYLNSILN; ends and bridges not checked; UniProt P01282 125-152, looked up) [VIP1-28]”: the “increase of skin temperature vs basal” value in the data set with human skin [1] (i.v. infusion 20 pmol/kg b.w./h, n=7) is reported as “did not result in a significant increase of ST”. In addition, the “increase of skin temperature ΔT vs basal” value in the data set with human skin [1] (i.v. infusion 100 pmol/kg b.w./h, maximum after 60 min, n=7) is 1.36 °C.

As to PACAP1-27, the “increase of skin temperature, bolus versus continuous infusion” value with human skin [1] (bolus 1 μmol/kg b.w./h compared with continuous 100 pmol/kg b.w./h) is “significantly higher increase of ST”. For the same substance, the “maximum increase of skin temperature ΔT vs basal” value with human skin [1] (bolus injection 1 μmol/kg b.w./h, maximum after 30 min, n=8) amounted to 2.7 °C. For the same substance, the “skin temperature course after bolus” value in the data set on human skin [1] (bolus injection, after 60 min) is recorded as “slight decrease of ST”. In addition, the “skin temperature compared to basal” value in the data set on human skin [1] (bolus injection, after 120 min) is “still elevated”. Also, the “increase of skin temperature ΔT vs basal” value in the data set on human skin [1] (continuous i.v. 100 pmol/kg b.w./h, after 5 min, n=10, mean±SEM) came out at 1.2 °C; in the data set on human skin [1] (continuous i.v. 100 pmol/kg b.w./h, after 30 min, n=10, mean±SEM) it was 1.8 °C; with human skin [1] (i.v. infusion 7.5 pmol/kg b.w./h over 30 min, n=9), 1.25 °C; in the data set on human skin [1] (i.v. infusion 15 pmol/kg b.w./h, n=9), 2.1 °C; in the data set on human skin [1] (i.v. infusion 30 pmol/kg b.w./h, n=9), 2.4 °C. Moreover, the “further increase of skin temperature compared to 30 min” value in the data set with human skin [1] (continuous i.v. 100 pmol/kg b.w./h, between 30 and 60 min) was “no significant increase of ST”. Further, the “skin temperature after stop of infusion” value with human skin [1] (immediately after infusion of 30 pmol/kg b.w./h was stopped) is recorded as “slowly decreased”. Moreover, in the data set with human skin [2] (100 pmol/kg b.w./h), the “approximate duration when first signs of a flush occurred” value came out at 46.03 ± 5.3 min. Further, the “mean time until first flush symptoms occurred” value in the data set on human skin [2] (FIG. 2: continuous infusion of 7.5, 15, or 30 pmol/kg b.w./h, n=9) was determined as 46.03 ± 5.30 min. The persistence of erythema in the data set on human skin [2] (after i.v. application) is ~6 h. Moreover, in the data set with human skin [2] (all participants, bolus and continuous infusion), the “erythema (flushing) and edema compared to control injections” value was “significant development of erythema (flushing) and edema”. For the same substance, the “healthy volunteers in whom the effect was dominant in the face and upper trunk” value in the data set on human skin [2] (i.v. application) is on record as “nine out of ten”.

Turning to “PACAP6-27 (FTDSYSRYRKQMAVKKYLAAVL; ends and bridges not checked; UniProt P18509 137-158, looked up, fragment)”, in the data set with VPAC1R (10^-7 M (100× the agonist), pretreatment 3 min before agonist), the “effect on agonist-induced cAMP activation” value is reported as “cut in half”. In the data set on HDMEC (preincubation before PACAP), the “PACAP-induced NO release after antagonist preincubation (value in brackets)” value is 79+/−22 and the “effect of preincubation on PACAP-induced NO release” value was “slightly enhanced”. In addition, the “NO release when TNFa was incubated with the antagonist” value in the data set with HDMEC (with TNFa) is reported as “significantly lower”.

“Pituitary adenylate cyclase activating polypeptide [PACAP]”: the “R diastol.” value in data set [3] (5 min, infusion 7.5 pmol/kg/h) was determined as 72 ± 4 mmHg; in data set [3] (15 min, infusion 7.5 pmol/kg/h), 75 ± 3 mmHg; in data set [3] (setting [4]), 75 ± 3 mmHg; in data set [3] (35 min, infusion 15 pmol/kg/h), 74 ± 4 mmHg; in data set [3] (45 min, infusion 15 pmol/kg/h), 74 ± 4 mmHg; in data set [3] (setting [5]), 74 ± 3 mmHg. Further, the “R diastol.” value in data set [3] (65 min, infusion 30 pmol/kg/h) amounted to 74 ± 3 mmHg; in data set [3] (75 min, infusion 30 pmol/kg/h) it was 74 ± 3 mmHg; in data set [3] (90 min (end of infusion)) it was 72 ± 4 mmHg; in data set [3] (100 min, after end of infusion), 73 ± 4 mmHg; in data set [3] (110 min, after end of infusion), 72 ± 4 mmHg; in data set [3] (120 min, after end of infusion), 74 ± 3 mmHg. Besides, the “R systol.” value in data set [3] (5 min, infusion 7.5 pmol/kg/h) is listed as 107 ± 4 mmHg; in data set [3] (15 min, infusion 7.5 pmol/kg/h), 109 ± 4 mmHg; in data set [3] (setting [4]) it was 111 ± 5 mmHg; in data set [3] (35 min, infusion 15 pmol/kg/h), 111 ± 5 mmHg; in data set [3] (45 min, infusion 15 pmol/kg/h), 111 ± 5 mmHg; in data set [3] (setting [5]), 111 ± 5 mmHg. For the same substance, the “R systol.” value turned out to be 109 ± 5 mmHg in data set [3] (65 min, infusion 30 pmol/kg/h); 110 ± 5 mmHg in data set [3] (75 min, infusion 30 pmol/kg/h); 109 ± 5 mmHg in data set [3] (90 min (end of infusion)); 109 ± 5 mmHg in data set [3] (100 min, after end of infusion); 109 ± 4 mmHg in data set [3] (110 min, after end of infusion); 112 ± 4 mmHg in data set [3] (120 min, after end of infusion). Moreover, the pulse stood at 64 ± 3 B/min in data set [3] (5 min, infusion 7.5 pmol/kg/h); 66 ± 4 B/min in data set [3] (15 min, infusion 7.5 pmol/kg/h); 68 ± 3 B/min in data set [3] (setting [4]); 69 ± 3 B/min in data set [3] (35 min, infusion 15 pmol/kg/h); 73 ± 4 B/min in data set [3] (45 min, infusion 15 pmol/kg/h); 69 ± 3 B/min in data set [3] (setting [5]). Also, the pulse in data set [3] (65 min, infusion 30 pmol/kg/h) is listed as 71 ± 3 B/min; in data set [3] (75 min, infusion 30 pmol/kg/h), 72 ± 2 B/min; in data set [3] (90 min (end of infusion)) it was 69 ± 3 B/min; in data set [3] (100 min, after end of infusion) it was 66 ± 4 B/min; in data set [3] (110 min, after end of infusion) it was 68 ± 4 B/min; in data set [3] (120 min, after end of infusion), 71 ± 4 B/min. The “differences in RR syst./diast. or pulse” value in data set [3] (during and after infusion) was “No measurable differences”. In addition, in the data set with VPAC1R (10^−9 M, IBMX 4 mM), the “cAMP activation compared to the negative control” value is given as “more than 4 fold”. Also, in the data set with VPAC1R (FIG. 10), the “activation of VPAC1R in HDMEC (cAMP)” value is “dose-dependent activation”. The “release of NO as compared to control” value in the data set with HDMEC (10^−9 M) was 582%. Besides, in the data set with HDMEC (10^−9 M), the “time of maximal effect on NO release” value is given as 15 min. Further, the “NO release on incubation together with TNFα, versus TNFα alone” value in the data set with HDMEC (with TNFα) is listed as “additive effect”.
